PMC4027194

Test system: G5 1297-1412 (RBS1)
Experiment: EMSA

Substance FMDV IRES domain 5 has a Kd of 20 µM.
